Assay: soluble on expression in E. coli; label from the status in PepcDB or PDB records

| Sequence | soluble on expression in E. coli |
| --- | --- |
| MSLRPQFEREQWLNLNGTWTFDFDFGKSGKDRRLQSAEKFDKNITVPFCPESKLSGVGYTDFIEQMWYQRNITIPSDWNGKKIFLNFGAVDYCAEIYVDGKFVQRHFGGSSSFAVDLTRYVTPGKTHNLVVFVQDDLRSGLQTGGKQCGNYYSGGCSYTRTTGIWQTVWMEAVSTDGLKSVFVRPDIDQKQLIIEPEFYNESANTLEIILKDGNKTVAKKSVNCANSSVVVLPVKNMKLWSPEDPFLYDLVYQVKDAKGNVLDEVKSYAGMRKVHTANGRFYLNNQPYFQRLVLDQGFYPEGIWTAPSDEDLKNDIVLGKEAGFNGARLHQKVFEERYYYWADKLGYITWGESASWMLDVNKELAARNFLGEWSEVVVRDRNHPSLVTWTPFNETWGGGPDAYVRLVRDVYNITKAIDPTRPVNDASGDNHVITDIWSVHNYEQDRAKLTEQLKMEEGKEPYRNARDKDFLAVYEGQPYMVDEFGGIPWMAEKDRKNSWGYGGMPENAEAFYKRLEGQIDAFIDSPHVTGFCYTQLTDVEQEKNGIYYYDRTPKLDMKRIKAIFEKIKEGHHHHHH | soluble |
| SARRYDELPHYPGIVDGPAALASFPETVPAVPGPYGPHRPPQPLPPGLDSDGLKREKDEIYGHPLFPLLALVFEKCELATCSPRDGAGAGLGTPPGGDVCSSDSFNEDIAAFAKQVRSERPLFSSNPELDNLMIQAIQVLRFHLLELEKGKMPIDLVIEDRDGGCREDFEDYPASCPSLPDQNNMWIRDHEDSGSVHLGTPGPSSGGLASQSGDNSSDQGDGLDTSVASPSSGGEDEDLDQERRRNKKRGIFPKVATNIMRAWLFQHLSHPYPSEEQKKQLAQDTGLTILQVNNWFINARRRIVQPMIDQSNRTGQGAAFSPEGQPIGGYTETQPHVAVRPPGSVGMSLNLEGEWHYL | soluble |
| QSQGGGSVTKKRKLESSESRSSFSQHARTSGRVAVEEVDEEGKFVRLRNKSNEDQSMGNWQIRRQNGDDPLMTYRFPPKFTLKAGQVVTIWASGAGATHSPPTDLVWKAQNTWGCGSSLRTALINSTGEEVAMRKLVR | soluble |
| MKTLGEFIVEKQHEFSHATGELTALLSAIKLGAKIIHRDINKAGLVDILGASGAENVQGEVQQKLDLFANEKLKAALKARDIVAGIASEEEDEIVVFEGCEHAKYVVLMDPLDGSSNIDVNVSVGTIFSIYRRVTPVGTPVTEEDFLQPGNKQVAAGYVVYGSSTMLVYTTGCGVHAFTYDPSLGVFCLCQERMRFPEKGKTYSINEGNYIKFPNGVKKYIKFCQEEDKSTNRPYTSRYIGSLVADFHRNLLKGGIYLYPSTASHPDGKLRLLYECNPMAFLAEQAGGKASDGKERILDIIPETLHQRRSFFVGNDHMVEDVERFIREFPDA | soluble |
| MTLPPDAPSRHRLVHALERTADLLDILGGEDFKSRAYRSAARSLEELNEETPELLAREFTGIPKVGKGIAAELSDFARSGTFAPLEAAAGQLPPGLLDLLGVRGLGPKKIRSLWLAGIDSLERLREAAESGELAGLKGFGAKSAATILENVVFLFEARQRQSLRAGLAVAEELAGALTDLSPAPAGDVRRGLETVRAAELTVTGTPDDVLARLPELTVQGDGVLSGDYEGVPVEIACAPAEARGALDLLRSGEHFAGQVQAAAQARGFTLTAGGLSRGDEVLPTPTEAVVFHALDLPFRPAEYREPEHDDLWQTLPDPAELVTVGDLRGMIHTHSTWSDGGASIREMAEATLTLGHEFLGTADHSRAAYYANGLTIERLREQLKEIRELQRAGLPIVAGSEVDILDDGSLDFPDDVLGELDYVVVSVHSNFTLDAARQTERLIRAVSHPLVTVLGHATGRLLLRRPGYALDLDAVLGACEANGTVVEINANAARLDLDWREALRWRERLKFAINTDAHVPGGLRDARYGVMQARKAGLTPAHVVNSLGRAEFLDFVARQRAARGAPGPADRAHHHHHH | soluble |
| MSFRPEYKEYFKQGATARIYNGAFEDAGFYDEVDIKEFEYSREEKTFYYPCPCGDRFEISLEDLRNGEVVARCPSCSLIVCTVYEAEDLEKYL | not soluble |
| MSLKRVMLKISGEALAGTNGYGIDFEVANRIAKEIKEIVDLGIEVGAVVGGGNIWRGRNGKGMDRTTADYMGMLATCINALALQDSLENMDVDTRVQTAIEMKQVAEPFIRRRAMRHLEKGRVVIFAGGTGNPYFSTDTTAALRAAEIEADVILLAKKVDGVYDKDPHKYDDAIKFDNLTYMEVLEKNLQVMDSTATSLCMDNNIPIIVFGLDVSGNIRKAVLGEKIGTIVSKEGHHHHHH | soluble |
| IDKIENYEQSTSQLREEIKTLYNEVIDIGKKLSQERRRVARELRDHIVSEIQNLQMKDANLEISFKPLDEPTIEGIEFVEFLISPNRGEPLKSLNKIASGGELSRIMLALKSIFVKSRGQTAILFDEVDSGVSGQAAQKMAEKMRDIAQYIQVICISHLPQVASMSDHHLLISKASNADRTTTQVKELKDENKIDEIARMISGASVTELTRENAKEMIKQNHNI | not soluble |
| MGSDKIHHHHHHMNPINWLVLVATVAGRNGTLRVRLWRQMKAIGAAALRDGVYLLPARPELRQMLANWRDELLAADGMAHVLQVVEDDPATQAGWRALFDRSEAYQQWGEALAALLAQPPGAESDARRSLRQLRKELEAIAAIDFFAGESLKSARRQCNDAEKWLTRHYSPDEPLAVGGDIPRLELADYQQRLWATRARPWVDRVASAWLIRRFIDPAARFAWLTDVHACPAEALGFDFDGAAFTHIGERVTFEVLLASFGLEHDPALSRLGELVHALDVGGSVVPEGTGFEAVLGGSRSRIADDDLLLADISNVLDSLYAHFQEAARPQGSRAPTL | not soluble |
| MSLAHLAAMFDDLVARFGDRPAIVDDRALSYRELDLLVRKIAVSLAALGIGKGDRVALFLGNCWEFLAVTLACNRLGVLVVPIGIRQRRAELEFLLNNSGAKVVVFEAELTDEIPAAAEVPQLAHRFVAHGTAEGARPFEDLLAAEPANAPLAEMHEDDTAVILYTSGTTGKPKGAELTHLSILHSSYAFARAHELTERDRGLVAVPLSHVTGLVGVSYATIAAGGCVVLMRQAFKTVDFLALAARERITYSILVPAIYTLAVMHPEFDKHDLSAWRIGCFGGAPMPVPTIEMLAKRLPNLQLRNAYGATETTSPTTIMPQAYWRDHMDSVGQAVPYAHVRVLDADDNEVAPGEPGELLIAGPMVVPRYWQRPDANAKEFVNGYWRSGDIGSIDQDGFVRVFDRKKDMINRGGFKIFSAEVENVICGIDGVLETAIIGTPDPVLGERVNAIVVTSEGASLSERDVAAYCAARMSDYKVPESIIIRSEPLPRNANGKIQKTVLRETIADRAASYAREGHHHHHH | not soluble |
| MLFMIEVEIFPHRYLKASTTEKFLNKIYDLKTVERVVIHGQPLPKVITYGPARGLPVNHTERKIIHVKGVPVELTVMAGRFWITLSDDSELDKLDEICKEMFPFGYNLRVGKFLKDRPTVTDYIKYGEDGVFLINEMDRRLIGMVDPRSRMANLEHHHHHH | not soluble |
| MKSIISLMAACAIGAASFAAPAFAQDKGSVGIAMPTKSSARWIDDGNNIVKQLQEAGYKTDLQYADDDIPNQLSQIENMVTKGVKVLVIASIDGTTLSDVLKQAGEQGIKVIAYDRLIRNSGDVSYYATFDNFQVGVLQATSITDKLGLKDGKGPFNIELFGGSPDDNNAFFFYDGAMSVLKPYIDSGKLVVKSGQMGMDKVGTLRWDPATAQARMDNLLSAYYTDAKVDAVLSPYDGLSIGIISSLKGVGYGTKDQPLPVVSGQDAEVPSVKSIIAGEQYSTIFKDTRELAKVTVNMVNAVMEGKEPEVNDTKTYENGVKVVPSYLLKPVAVTKENYKQVLVDGGYYKEDQLK | not soluble |
| MGIKKKYGEGKMDIKPIRKKRVYQAIIEQIQQFIRQGQLKPGDKLPSERDLAEKFQVSRTTIKEAIAVMEAIGVLEIRPGVGTFVRETGNHFLDLNYIFGDDDTEIQELMEFRQAIEVEAAYYAAIRGTEDGKRKLTQLFSELEKEVMSGKLPAKSDFSFHMQISSMSQNALFLRIMEFISDKLFKSVTKNAVNTFAGAGDPVRVLQEHRAIYEAILSGDGVKARQAMRYHLESVIARYKGI | soluble |

— the DeepSol protein solubility set
